Test results taken from article PMC9427764.

Legend:
[1] = Azi photo-cross-linking in HEK293T, anti-Flag blot; details: glycan lost; control: PD-L1-Azi without NQ mutations
[2] = Azi photo-cross-linking, immunoblot; details: glycan lost; control: untreated PD-L1-V76Azi cells

Substance | oligomerisation [1] | oligomerisation [2]
PD-L1: 4NQ | decreases | 
PD-L1: 5 µM tunicamycin, 24 h |  | decreases
